Positions count from the first letter of the chain named. Numbers in names are those of the source.
T1: IgG1 Fc fragment with CH3 modification E345R/K360E/D399M/Y407A/K409V (SEQ ID NO: 76)
T1 chain: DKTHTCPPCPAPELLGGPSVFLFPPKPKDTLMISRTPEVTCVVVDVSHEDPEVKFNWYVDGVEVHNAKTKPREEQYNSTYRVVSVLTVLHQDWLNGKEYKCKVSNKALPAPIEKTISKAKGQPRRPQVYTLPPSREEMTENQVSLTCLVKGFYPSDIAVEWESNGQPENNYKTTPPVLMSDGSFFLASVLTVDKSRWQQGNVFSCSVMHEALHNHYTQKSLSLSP

T2: IgG1 Fc fragment with CH3 modification E345R/Q347R/K360D/T366V/D399M/Y407A/K409V (SEQ ID NO: 74)
T2 chain: T1 chain with Q127R, E140D, T146V

T3: IgG1 Fc fragment with CH3 modification E356K/D399K/K409E/K439E (SEQ ID NO: 68)
T3 chain: T1 chain with R125E, E136K, E140K, M179K, A187Y, V189E, K219E

T4: IgG1 Fc fragment with CH3 modification E356K/K392D/D399K/K409D (SEQ ID NO: 75)
T4 chain: T1 chain with R125E, E136K, E140K, K172D, M179K, A187Y, V189D

T5: IgG1 Fc fragment with CH3 modification E356K/K392D/D399K/K439E (SEQ ID NO: 71)
T5 chain: T1 chain with R125E, E136K, E140K, K172D, M179K, A187Y, V189K, K219E

T6: IgG1 Fc fragment with CH3 modification K392D/D399K/K409D (SEQ ID NO: 72)
T6 chain: T1 chain with R125E, E140K, K172D, M179K, A187Y, V189D

T7: IgG1 Fc fragment with CH3 modification Q347E/S354Y/T366Y/Y407T (SEQ ID NO: 69)
T7 chain: T1 chain with R125E, Q127E, S134Y, E140K, T146Y, M179D, A187T, V189K

T8: IgG1 Fc fragment with CH3 modification Y349C/E357C/K392D/D399K (SEQ ID NO: 73)
T8 chain: T1 chain with R125E, Y129C, E137C, E140K, K172D, M179K, A187Y, V189K

B1: full-length IgG heavy chain with CH3 modification Y349C/E357C/K392D/D399K (SEQ ID NO: 51), coexpressed with light chain SEQ ID NO: 61 (protein)
chain 1: QVQLQESGPGLVRPSQTLSLTCTVSGYSITSDHAWSWVRQPPGRGLEWIGYISYSGITTYNPSLKSRVTMLRDTSKNQFSLRLSSVTAADTAVYYCARSLARTTAMDYWGQGSLVTVSSASTKGPSVFPLAPSSKSTSGGTAALGCLVKDYFPEPVTVSWNSGALTSGVHTFPAVLQSSGLYSLSSVVTVPSSSLGTQTYICNVNHKPSNTKVDKRVEPKSCDKTHTCPPCPAPELLGGPSVFLFPPKPKDTLMISRTPEVTCVVVDVSHEDPEVKFNWYVDGVEVHNAKTKPREEQYNSTYRVVSVLTVLHQDWLNGKEYKCKVSNKALPAPIEKTISKAKGQPREPQVCTLPPSRECMTKNQVSLTCLVKGFYPSDIAVEWESNGQPENNYDTTPPVLKSDGSFFLYSKLTVDKSRWQQGNVFSCSVMHEALHNHYTQKSLSLSP
chain 2: not shown
B2: full-length IgG heavy chain with CH3 modification E356K/K392D/D399K/K409D (SEQ ID NO: 56), coexpressed with light chain SEQ ID NO: 61 (protein)
chain 1: B1 chain 1 with C351Y, E358K, C359E, K411D
chain 2: not shown
B3: full-length IgG heavy chain with CH3 modification T350V/L351Y/T366L/K392L/T394W/F405A/Y407V (SEQ ID NO: 60), coexpressed with light chain SEQ ID NO: 61 (protein)
chain 1: B1 chain 1 with C351Y, T352V, L353Y, C359E, T368L, D394L, T396W, K401D, F407A, Y409V
chain 2: not shown
B4: full-length IgG heavy chain with CH3 modification E345R/Q347R/K360D/T366V/D399M/Y407A/K409V (SEQ ID NO: 55), coexpressed with light chain SEQ ID NO: 61 (protein)
chain 1: B1 chain 1 with E347R, Q349R, C351Y, C359E, K362D, T368V, D394K, K401M, Y409A, K411V
chain 2: not shown
B5: full-length IgG heavy chain with CH3 modification E345R/K360E/D399M/Y407A/K409V (SEQ ID NO: 58), coexpressed with light chain SEQ ID NO: 61 (protein)
chain 1: B1 chain 1 with E347R, C351Y, C359E, K362E, D394K, K401M, Y409A, K411V
chain 2: not shown

Target: T1, IgG1 Fc fragment with CH3 modification …
Test: SEC area ratio of heteromultimer after coexpression of full-length heavy chain, light chain and Fc fragment in Expi293F

**Q.** For B1, which heterodimer formation ratio (%) is on record?
**A.** 0%

**Q.** For B2, which heterodimer formation ratio (%) is on record?
**A.** 0%

**Q.** With B3 as the protein, how does the heterodimer formation ratio (%) read?
**A.** 0%

**Q.** How did the heterodimer formation ratio (%) turn out when B4 was run?
**A.** 49%

**Q.** Which heterodimer formation ratio (%) does the source give for B5 here?
**A.** 51%

Target: T2, IgG1 Fc fragment with CH3 modification …
Test: as above

**Q.** For B1, which heterodimer formation ratio (%) is on record?
**A.** 2%

**Q.** Which heterodimer formation ratio (%) does the source give for B2 here?
**A.** 0%

**Q.** B3 was tested. Which heterodimer formation ratio (%) did it give?
**A.** 0%

**Q.** With B4 as the protein, how does the heterodimer formation ratio (%) read?
**A.** 52%

**Q.** How did the heterodimer formation ratio (%) turn out when B5 was run?
**A.** 51%

Target: T3, IgG1 Fc fragment with CH3 modification …
Test: as above

**Q.** How did the heterodimer formation ratio (%) turn out when B1 was run?
**A.** 0%

**Q.** How did the heterodimer formation ratio (%) turn out when B2 was run?
**A.** 53%

**Q.** How did the heterodimer formation ratio (%) turn out when B3 was run?
**A.** 0%

**Q.** Which heterodimer formation ratio (%) does the source give for B4 here?
**A.** 0%

**Q.** For B5, which heterodimer formation ratio (%) is on record?
**A.** 0%

Target: T4, IgG1 Fc fragment with CH3 modification …
Test: as above

**Q.** For B1, which heterodimer formation ratio (%) is on record?
**A.** 0%

**Q.** Which heterodimer formation ratio (%) does the source give for B2 here?
**A.** 56%

**Q.** For B3, which heterodimer formation ratio (%) is on record?
**A.** 0%

**Q.** For B4, which heterodimer formation ratio (%) is on record?
**A.** 0%

**Q.** Which heterodimer formation ratio (%) does the source give for B5 here?
**A.** 0%

Target: T5, IgG1 Fc fragment with CH3 modification …
Test: as above

**Q.** For B1, which heterodimer formation ratio (%) is on record?
**A.** 0%

**Q.** How did the heterodimer formation ratio (%) turn out when B2 was run?
**A.** 60%

**Q.** For B3, which heterodimer formation ratio (%) is on record?
**A.** 0%

**Q.** B4 was tested. Which heterodimer formation ratio (%) did it give?
**A.** 0%

**Q.** How did the heterodimer formation ratio (%) turn out when B5 was run?
**A.** 0%

Target: T6, IgG1 Fc fragment with CH3 modification …
Test: as above

**Q.** Which heterodimer formation ratio (%) does the source give for B1 here?
**A.** 9%

**Q.** Which heterodimer formation ratio (%) does the source give for B2 here?
**A.** 51%

**Q.** B3 was tested. Which heterodimer formation ratio (%) did it give?
**A.** 0%

**Q.** Which heterodimer formation ratio (%) does the source give for B4 here?
**A.** 0%

**Q.** For B5, which heterodimer formation ratio (%) is on record?
**A.** 3%

Target: T7, IgG1 Fc fragment with CH3 modification …
Test: as above

**Q.** How did the heterodimer formation ratio (%) turn out when B1 was run?
**A.** 0%

**Q.** For B2, which heterodimer formation ratio (%) is on record?
**A.** 0%

**Q.** Which heterodimer formation ratio (%) does the source give for B3 here?
**A.** 0%

**Q.** How did the heterodimer formation ratio (%) turn out when B4 was run?
**A.** 0%

**Q.** Which heterodimer formation ratio (%) does the source give for B5 here?
**A.** 0%

target: IgG1 Fc fragment with CH3 modification T394F/F405A (SEQ ID NO: 67); test: as above

**Q.** With B1 as the protein, how does the heterodimer formation ratio (%) read?
**A.** 0%

**Q.** How did the heterodimer formation ratio (%) turn out when B2 was run?
**A.** 0%

**Q.** Which heterodimer formation ratio (%) does the source give for B3 here?
**A.** 4%

**Q.** How did the heterodimer formation ratio (%) turn out when B4 was run?
**A.** 0%

**Q.** For B5, which heterodimer formation ratio (%) is on record?
**A.** 0%

Target: T8, IgG1 Fc fragment with CH3 modification …
Test: as above

**Q.** B1 was tested. Which heterodimer formation ratio (%) did it give?
**A.** 56%

**Q.** With B2 as the protein, how does the heterodimer formation ratio (%) read?
**A.** 0%

**Q.** For B3, which heterodimer formation ratio (%) is on record?
**A.** 0%

**Q.** With B4 as the protein, how does the heterodimer formation ratio (%) read?
**A.** 0%

**Q.** Which heterodimer formation ratio (%) does the source give for B5 here?
**A.** 0%

target: IgG1 Fc fragment, WT (no CH3 modification), SEQ ID NO: 63 in Table 5; test: as above

**Q.** With B1 as the protein, how does the heterodimer formation ratio (%) read?
**A.** 0%

**Q.** How did the heterodimer formation ratio (%) turn out when B2 was run?
**A.** 0%

**Q.** B3 was tested. Which heterodimer formation ratio (%) did it give?
**A.** 0%

**Q.** How did the heterodimer formation ratio (%) turn out when B4 was run?
**A.** 0%

**Q.** Which heterodimer formation ratio (%) does the source give for B5 here?
**A.** 0%
